Earlier results in publication PMC6707866.

Target: Bag3 (Homo sapiens) (UniProt O95817)
Sequence of UniProt O95817 (O95817 2-575): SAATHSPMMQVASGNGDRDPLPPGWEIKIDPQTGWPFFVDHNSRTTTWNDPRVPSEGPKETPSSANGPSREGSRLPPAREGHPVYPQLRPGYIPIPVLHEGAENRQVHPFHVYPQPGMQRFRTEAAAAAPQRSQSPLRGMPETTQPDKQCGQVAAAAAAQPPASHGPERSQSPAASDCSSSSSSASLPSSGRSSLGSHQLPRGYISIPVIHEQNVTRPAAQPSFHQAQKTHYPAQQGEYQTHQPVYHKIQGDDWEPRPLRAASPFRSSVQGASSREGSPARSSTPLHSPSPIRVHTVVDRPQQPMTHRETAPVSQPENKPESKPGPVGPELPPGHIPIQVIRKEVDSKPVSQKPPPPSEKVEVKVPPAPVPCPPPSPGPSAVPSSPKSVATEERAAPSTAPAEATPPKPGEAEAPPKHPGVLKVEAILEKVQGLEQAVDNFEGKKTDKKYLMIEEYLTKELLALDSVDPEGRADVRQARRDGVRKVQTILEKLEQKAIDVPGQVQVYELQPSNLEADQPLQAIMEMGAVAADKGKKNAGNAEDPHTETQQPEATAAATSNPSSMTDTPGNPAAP

Kd: 25 nM
Substance: Hsp70 (from UniProt P0DMV8)
